We go through 22 molecules from article PMC9876794 (2022).

The target in experiment [1] is T1, SARS-CoV-2 spike RBD (WT) (Severe acute respiratory syndrome …, UniProt P0DTC2). As to the kind of experiment: BLI.
Experiment [2] addresses T1, SARS-CoV-2 spike RBD (WT). As to the kind of experiment: ELISA. Set-up: unit not given here. For orientation: ELISA stands for enzyme-linked immunosorbent assay.

The Kd is a measure of binding affinity in units of concentration.

B1: D173 (antibody, V domains shown)
VH: EVQLVQSGAEVKKPGESLRISCKGSGYSFTSYWISWVRQMPGKGLEWMGRIDPSDSYTNYSPSFQGHVTISADKSISTAYLQWSSLKASDTAMYYCASQGLVPAAIEIWDYWGQGTLVTVSS
VL: EIVLTQSPATLSLSPGERATLSCRASQSVSSYLAWYQQKPGQAPRLLIYDASNRATGIPARFSGSGSGTDFTLTISSLEPEDFAVYYCQQHSNWPLTFGGGTKVEIK
The molecule B1 returned a Kd in experiment [1] of 60.3 nM. This molecule had a binding score in experiment [2] of 181.

B2: C2712 (antibody, V domains shown)
VH: EVQLVESGGGLVQPGGSLRLSCVASGFTFSSDDIHWVRQATGKGLEWVSGIGTAGDTYYAGSVKGRFTISRENAKNSLYLQMKSLRAGDTAVYYCARGVQSWLRGYYYYYMDVWGKGTTVTVSS
VL: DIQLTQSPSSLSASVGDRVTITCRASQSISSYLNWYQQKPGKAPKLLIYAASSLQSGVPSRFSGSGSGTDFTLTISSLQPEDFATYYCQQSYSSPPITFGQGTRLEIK
The molecule B2 returned a Kd in experiment [1] of 19.6 nM. Further, the binding score in experiment [2] is 7.83.

B3: D038 (antibody, V domains shown)
VH: EVQLVQSGAEVKKPGESLKISCKGSGYSFTSYWIAWVRQMPGKGLEWMGIIYPGDSDTRYSPSFQGQVTISADKSISTAYLQWSSLKASDTAMYYCARQGYSYGYVDYWGQGTLVTVSS
VL: NFMLTQPHSVSESPGKTVTISCTRSSGSIASNYVQWYQQRPGSAPTTVIYEDNQRPSGVPDRFSGSIDSSSNSASLTISGLKTEDEADYYCQSYDSSNWVFGGGTKLTVL
In experiment [1], B3 gave a dissociation constant (Kd) of 306 nM. For the same molecule, the binding score in experiment [2] is greater than 10000.

B4: D155 (antibody, V domains shown)
VH: QLQLQESGPGLVKPSETLSLTCTVSGGSISSSSYYWGWIRQPPGKGLEWIGSIYYSGSTYYNPSLKSRVTISVDTSKNQFSLKLSSVTAADTAVYYCARQPYYYDSSGINRAFDIWGQGTMVTVSS
VL: QSVLTQPRSVSGSPGQSVTISCTGTSSDVGGYNYVSWYQQHPGKAPKLMIYDVSKRPSGVPDRFSGSKSGNTASLTISGLQAEDEADYYCCSYAGTVVFGGGTKLTVL
Molecule B4 gave a Kd in experiment [1] of 116 nM. The binding score in experiment [2] stood at 1000.

B5: D009 (antibody, V domains shown)
VH: EVQLLESGGGLVQPGGSLRLSCAATGFTFGSYTMTWVRQAPGKGLEWVSSISVSGRRTYYAGSVQGRFTVSRDNSMNALFLQMNSLRADDTAVYYCARDAPREAYYDRTGHYIFYYGMDLWGQGTTVTVSS
VL: EIVMTQSPATLSVSPGERATLSCRASQSVSDNLAWYQQKPGQAPRLLIYGASTRAIGIPDRFTGSGSGTEFTLTISSLQSEDFAVYYCQHYNNGPSVGFGQGTRVEFK
As for B5, the affinity in experiment [1], expressed as Kd, was 5440 nM. The binding score in experiment [2] came out at 2390.

B6: C2695 (antibody, V domains shown)
VH: EVQLVESGGGLAQPGRSLRLSCAASGFKFDDYAMHWVRQAPGQGLEWVSGIDWNSGIIGYADSVMGRFTISRDNAKKSLYLQMNSLRAEDTALYYCAKSGGFGEFKWFDPWGQGTLVTVSS
VL: EIVMTQSPVTLSVSPGERATLSCRASQSVSGNLAWYQQKPGQAPRLLIYGASTRATGFPARFSGSGSGTEFTLTISRLQSEDFAVYYCQQYNKWPRTFGQGTKLEIK
In turn, B6 showed an equilibrium dissociation constant (Kd) in experiment [1] of 133 nM. In addition, the binding score in experiment [2] is 45.1.

B7: C2698 (antibody, V domains shown)
VH: EVQLVESGGGLAQPGRSLRLSCAASGFKFDDYAMHWVRQVPGQGLEWVSGIDWNSGIIGYADSVMGRFTISRDNAKKSLYLQMNSLRTEDTALYYCAKSGGFGEFKWFDPWGQGTLVTVSS
VL: EIVMTQSPATLSVSPGERATLSCRASQSVSSNLAWYQQKPGQAPRLLIYGASTRATGFPARFSGSGSGTEFTLTISRLQSEDFAVYYCQQYNKWPRTFGQGTKLEIK
In experiment [1], B7 registered a Kd of 152 nM. Also, in experiment [2], the binding score came out at 79.2.

B8: C2717 (antibody, V domains shown)
VH: EVQLVESGGGLVQPGGSLRLSCAASGFTVSSNYMSWVRQAPGKGLEWVSVIYSGGSTYYADSVKGRFTISRDNSKNTLYLQMNSLRAEDTAVYYCARELYSSSSYFDYWGQGTLVTVSS
VL: QSVLTQPPSVSGAPGQRVTISCTGSSSNIGAGYDVHWYQQLPGTAPKLLIYGNSNRPSGVPDRFSGSKSGTSASLAITGLQAEDEADYYCQSYDSSLSGSGVFGGGTKLTVL
B8 registered a dissociation constant (Kd) in experiment [1] of 153 nM. This molecule had a binding score in experiment [2] of 124.

B9: C2731 (antibody, V domains shown)
VH: QVQLQQWGAGLLKPSETLSRTCAVYGGSFSGYYWSWIRQSPGKGLEWIGEINHRGSTNYNPSLKSRVTISVDTSKNQLSLELRSVTAADTAVYYCARSPGWTTVTRPFDYWGQGALVTVSS
VL: EIVLTQSPGTLSLSPGERATLSCRASQSVSSNYLAWYQQKPGQAPRLLVYGASNRATGIPDRFSGSGSGTDFTLTISRLEPEDFAVFYCQQYSSSPVTFGQGTRLEIK
B9 yielded a Kd in experiment [1] of 143 nM. In addition, the binding score in experiment [2] was determined as 4400.

B10: C2701 (antibody, V domains shown)
VH: EVQLVESGGGLVQPGGSLRLSCAASGFTVSSNYMSWVRQAPGKGLEWVSVIYSGGSTYYADSVKGRFTISRHNSKNTLYLQMNSLRAEDTAVYYCARDYGDLFFDYWGQGTTVTVSS
VL: not shown
On to B10, for which, in experiment [1], binding was characterised by a dissociation constant (Kd) of 88.4 nM. Besides, the binding score in experiment [2] turned out to be 170.

B11: D005 (antibody, V domains shown)
VH: QVQLVQSGAEVKKPGASVKVSCKASGYTFTNYYIHWVRQAPGQGLEWMGIINPSAGSTTYAQKFQGRVTMTSDTSTSTVYMELSSLRSEDTAVYYCARAGELIPAARASFQHWGQGTLVTVSS
VL: DIQMTQSPSTLSASVGDRVTITCRASQSISTWLAWYQQKPGKAPKILIYKASSLESGVPSRFSGSGSGTEFTLTLSSLQPDDFATYYCQQYNSYSPTFGQGTKVEIK
In experiment [1], B11 gave a Kd of 49.8 nM. Also, the binding score in experiment [2] came to 96.

B12: C2738 (antibody, V domains shown)
VH: QVQLQESGPGLVKPSETLSLTCTVSGGSISSYYWSWIRQPAGKGLEWIGRIYTSGSTNYNPSLKSRVTMSVDTSKNQFSLKLSSVTAADTAVYYCARDLWGGSRPFNWFDPWGQGTLVTVSS
VL: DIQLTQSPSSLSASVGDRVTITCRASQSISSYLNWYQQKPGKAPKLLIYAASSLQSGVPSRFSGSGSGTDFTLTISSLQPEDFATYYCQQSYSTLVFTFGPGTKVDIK
B12: the Kd in experiment [1] was 10.2 nM. In experiment [2], this molecule registered a binding score of 21.1.

B13: D007 (antibody, V domains shown)
VH: QVQLVESGGGVVQPGGSLRLSCAASGFTFSSYGMHWVRQAPGKGLEWVAFIRYDGSNKYYADSVKGRFTISRDNSKNTLYLQMNSLRAEDTAVYYCAKDQYYYGSGSYSDYWGQGTLVTVSS
VL: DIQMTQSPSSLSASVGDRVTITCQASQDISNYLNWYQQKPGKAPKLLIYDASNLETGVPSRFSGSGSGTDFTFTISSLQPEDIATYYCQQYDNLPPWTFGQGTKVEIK
As for B13, binding in experiment [1] was characterised by a dissociation constant (Kd) of 6720 nM. Besides, the binding score in experiment [2] turned out to be 8280.

B14: D148 (antibody, V domains shown)
VH: QLQLQESGPGLVKPSETLSLTCTVSGGSISSSSYYWGWIRQPPGKGLEWIGSIYYSGSTYYNPSLKSRVTISVDTSKNQFSLKLSSVTAADTAVYYCARQTIYYDSSGSLEVEPMDVWGQGTTVTVSS
VL: not shown
Turning to B14, in experiment [1], the Kd was determined as 6.46 nM. In experiment [2], this molecule showed a binding score of 29.

B15: D103 (antibody, V domains shown)
VH: QVQLVESGGGVVQPGRSLRLSCAASGFTFSSYGMHWVRQAPGKGLEWVAVISYDGSNKYYADSVKGRFTISRDNSKNTLYLQMNSLRAEDTAVYYCAKGGYYDSSAYYGPLDYWGQGTLVTVSS
VL: SYVLTQPPSVSVAPGKTARITCGGNNIGSKSVHWYQQKPGQAPVLVVYDDSDRPSGIPERFSGSNSGNTATLTISRVEAGDEADYYCQVWDSSSDHWVFGGGTKLTVL
The molecule B15 had a Kd in experiment [1] of 2700 nM. The molecule also registered a binding score in experiment [2] greater than 10000.

B16: C2710 (antibody, V domains shown)
VH: EVQLVESGGGLVQPGGSLRLSCAASGFTFSSYWMSWVRQAPGKGLEWVANINQDGSEIHYVDSVKGRFTISRDNAKNSLYLQMNSLRAEDTAVYYCAREGGPYDFWSGSNWFDPWGQGTLVTVSS
VL: QSALTQPASVSGSPGQSITISCTGTSSDVGGYNFVSWYQQRPGKAPKLMIYEVHNRPSGVSNHFSGSKSGNTASLTISGLQAEDEADYYCSSYTSNSLYVFGTGTKVTVL
As to B16, the Kd in experiment [1] stood at 11.9 nM. The binding score in experiment [2] came to 9.12.

B17: C2715 (antibody)
chain 1: not shown
chain 2: DIQLTQSPSSVSASVGDRVTITCRASQGISSWLAWYQQKPGKAPKLLIYAASSLQSGVPSRFSGSGSGTDFTLTISSLQPEDFATYYCQQANSFPRTFGQGTKVEIK
The molecule B17 came in with a Kd in experiment [1] of 63.4 nM. The same molecule returned a binding score in experiment [2] of 189.

B18: D126 (antibody, V domains shown)
VH: QVQLVQSGAEVKKPGASVKVSCKASGYTFTSYGISWVRQAPGQGLEWMGWISAYNGNTNYAQKLQGRVTMTTDTSTSTAYMELRSLRSDDTAVYYCARDDTSGWYTGDAFDIWGQGTMVTVSS
VL: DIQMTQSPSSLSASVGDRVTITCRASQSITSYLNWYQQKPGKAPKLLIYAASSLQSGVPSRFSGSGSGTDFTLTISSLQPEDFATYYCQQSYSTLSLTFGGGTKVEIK
In experiment [1], B18 returned a dissociation constant Kd of 16.7 nM. In experiment [2], the binding score was 973.

B19: D053 (antibody, V domains shown)
VH: EVQLVESGGGLVKPGGSLRLSCAASGFTFSNAWMSWVRQAPGKGLEWIGRIKSNTDGGTIDYAAPVKGRFTISRDDSKNTLYLQMNSLKTEDTAVYYCTTDGAFFVVADPFDYWGQGTLVTVSS
VL: DIQMTQSPSSLSASVGDRVTITCRASQSMTNYLNWYQQKPGKAPELLIYGVSSLQSGVPSRFSGSGSGTDFTLTISSLQPEDFATYYCQQSYRTPRTFGQGTKVEIK
In experiment [1], B19 came in with a Kd of 2420 nM. The binding score in experiment [2] stood at 3050.

B20: C2722 (antibody, V domains shown)
VH: EVQLVESGGGLVQPGGSLRLSCAASGFTFSSYSMNWVRQAPGKGLEWVSYISSSSSTIYYADSVKGRFTISRDNAKNSLYLQMNSLRAEDTAVYYCARDDGGGAYYDFWSGYYGDYWGQGTLVTVSS
VL: EIVLTQSPATLSLSPGERATLSCRASQSVSSYLAWYQQKPGQAPRLLIYDASNRATGIPARFSGSGSGTDFTLTISSLEPEDFAVYYCQQRSNWPPFTFGPGTKVDIK
The molecule B20 gave a dissociation constant (Kd) in experiment [1] of 43.3 nM. Further, the binding score in experiment [2] was 177.

B21: D108 (antibody, V domains shown)
VH: QVQLVQSGAEVKKPGASVKVSCKASGYTFTSSDINWVRQATGQGLEWVGWMNPNSGNTGYAQKFQGRVTMTRNTSISTAYMELSSLRSEDTAVYYCASGPYWSGYYYYFDNWGQGTLVTVSS
VL: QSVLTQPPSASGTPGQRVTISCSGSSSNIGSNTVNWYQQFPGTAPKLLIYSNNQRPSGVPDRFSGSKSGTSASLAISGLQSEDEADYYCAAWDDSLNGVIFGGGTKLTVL
As for B21, binding in experiment [1] was characterised by a dissociation constant (Kd) of 6840 nM. The binding score in experiment [2] came out at 6120.

B22: C2697 (antibody, V domains shown)
VH: EVQLVESGGGLVQPGGSLRLSCAASGFTFSSSYSMNWVRQAPGKGLEWVSYISSSSSTIYYADSVKGRFTISRDNAKNSLYLQMNSLRDEDTAVYYCARHYGDKTYYFYGMDVWGQGTTVTVSS
VL: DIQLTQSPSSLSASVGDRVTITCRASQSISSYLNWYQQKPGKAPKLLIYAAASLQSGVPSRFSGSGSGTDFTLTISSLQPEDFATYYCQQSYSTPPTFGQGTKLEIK
For B22, binding in experiment [1] was put at a Kd of 101 nM. Moreover, in experiment [2], the binding score stood at 2060.
